The record followed here is patent US9745384B2, “Peptides useful for modulating histone demethylase function” (The Brigham and Women's Hospital, Inc., priority 2012, dated 2017).

One series deals with T1, His-LSD2 (Homo sapiens, UniProt Q8NB78).
T1 construct: typically 0.5 μg full-length His-LSD2; made in house; host or cells: Sf9 insect cells
T1 sequence (Q8NB78 1-822): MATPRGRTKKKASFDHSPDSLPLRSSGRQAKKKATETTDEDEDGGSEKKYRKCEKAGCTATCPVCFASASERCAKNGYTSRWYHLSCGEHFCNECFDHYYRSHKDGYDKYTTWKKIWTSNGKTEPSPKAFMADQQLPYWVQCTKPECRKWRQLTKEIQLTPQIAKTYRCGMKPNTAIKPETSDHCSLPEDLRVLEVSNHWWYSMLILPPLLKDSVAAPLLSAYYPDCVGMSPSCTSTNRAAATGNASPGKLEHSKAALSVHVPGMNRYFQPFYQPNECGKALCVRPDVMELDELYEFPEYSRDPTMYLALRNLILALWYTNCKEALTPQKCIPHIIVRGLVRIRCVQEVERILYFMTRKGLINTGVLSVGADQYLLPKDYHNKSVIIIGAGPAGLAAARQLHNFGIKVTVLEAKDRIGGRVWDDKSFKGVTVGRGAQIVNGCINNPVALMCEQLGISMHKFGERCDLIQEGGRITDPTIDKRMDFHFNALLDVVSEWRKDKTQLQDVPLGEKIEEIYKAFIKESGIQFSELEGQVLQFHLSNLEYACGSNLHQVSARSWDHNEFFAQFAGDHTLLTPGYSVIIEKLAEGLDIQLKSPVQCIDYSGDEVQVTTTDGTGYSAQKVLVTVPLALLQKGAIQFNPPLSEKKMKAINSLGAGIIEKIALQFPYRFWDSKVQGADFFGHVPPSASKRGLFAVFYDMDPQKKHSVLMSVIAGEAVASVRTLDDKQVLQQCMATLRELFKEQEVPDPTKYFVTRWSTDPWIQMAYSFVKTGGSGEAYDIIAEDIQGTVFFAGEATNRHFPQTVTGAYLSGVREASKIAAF
In words: Nucleosome demethylation assay (NPAC cofactor activity for LSD2, immunoblot). The class given is biochemical. The conditions noted are these: for Cofactor activity: stimulation of LSD2 demethylation of nucleosomal H3K4me2: threshold dosage of His-LSD2, nucleosomes purified from HeLa. The protocol: For nucleosome demethylation assays, typically 0.5 μg full-length His-LSD2, 1 μg NPAC protein or peptides, and 2 μg nucleosomes purified from HeLa were used, and demethylation efficiency was analyzed by SDS-PAGE electrophoresis and immunoblot using methylation specific anti-histone H3 antibodies as previously described (Shi et al. 2004).

The target in a further series is LSD1 (Homo sapiens, UniProt O60341). Description: LSD1-mediated nucleosome demethylation assay. The class given is biochemical. The settings on record: 2 μg LSD1 with 5 μg cofactor protein. The procedure: (§1) FIG. 7A depicts the determination of the threshold dosage of purified LSD2 required for nucleosomal H3K4 demethylation. 2 μg of nucleosomes purified from HeLa were incubated with various amount of His-LSD2 proteins for 2 hours at 30° C. The demethylation reactions were analyzed by immunoblotting using indicated antibodies. […] 2 μg LSD1 in combination with 5 μg purified NPAC or CoREST protein was used for histone demethylase assays. […] Transfected cells are marked by arrows; cells shown significant reduction of H3K4me1 are marked by dotted circles. […] In contrast, coexpression of LSD2 and NPAC induces obvious global decrease of H3K4me1. […] FIG. 7D depicts immunofluorescence analyses of H3K9me2 demethylation in cells coexpressing LSD2 and full-length NPAC.

Series [1] deals with nucleosomes purified from HeLa. Description: Nucleosome pulldown by GST-NPAC proteins. The class given is binding. The procedure: Nucleosomes were purified from HeLa as previously described (Umlauf et al., 2004). To examine nucleosome binding selectivity of NPAC, 5 μg GST fusion protein bound to glutathione agarose were incubated with 20 μg nucleosomes overnight at 4° C. in nucleosome binding buffer (50 mM NaPO4 pH 7.4, 200 mM NaCl, 0.5% NP-40, 5% glycerol, 10 μM ZnSO4, 1 mM MgCl2, 1 mM DTT, 0.1 mM PMSF). After washing 4 times with the same buffer at 4° C., the beads were boiled in 1×SDS sample loading buffer and elute was resolved by 15% SDS-PAGE for immunoblot analysis or coomassie staining.
For free-DNA competition assays, human genomic DNA was purified from HeLa cells and fragmented to an average size around 300 bp by sonication. Equal amounts of GST-NPAC.d5 bound to glutathione beads were pre-incubated with 0, 5, 10, 25 μg genomic DNA fragments in nucleosome binding buffer for 30 minutes at room temperature, and equal amounts of nucleosomes were added and incubated overnight at 4° C. After extensive washing, GST-NPAC.d5 and bound nucleosomes were eluted by boiling in 1×SDS sample loading buffer, resolved by SDS-PAGE and stained with coomassie blue.

The next series has as its target T2, LSD2 (Homo sapiens, UniProt Q8NB78).
T2 sequence (Q8NB78 1-822): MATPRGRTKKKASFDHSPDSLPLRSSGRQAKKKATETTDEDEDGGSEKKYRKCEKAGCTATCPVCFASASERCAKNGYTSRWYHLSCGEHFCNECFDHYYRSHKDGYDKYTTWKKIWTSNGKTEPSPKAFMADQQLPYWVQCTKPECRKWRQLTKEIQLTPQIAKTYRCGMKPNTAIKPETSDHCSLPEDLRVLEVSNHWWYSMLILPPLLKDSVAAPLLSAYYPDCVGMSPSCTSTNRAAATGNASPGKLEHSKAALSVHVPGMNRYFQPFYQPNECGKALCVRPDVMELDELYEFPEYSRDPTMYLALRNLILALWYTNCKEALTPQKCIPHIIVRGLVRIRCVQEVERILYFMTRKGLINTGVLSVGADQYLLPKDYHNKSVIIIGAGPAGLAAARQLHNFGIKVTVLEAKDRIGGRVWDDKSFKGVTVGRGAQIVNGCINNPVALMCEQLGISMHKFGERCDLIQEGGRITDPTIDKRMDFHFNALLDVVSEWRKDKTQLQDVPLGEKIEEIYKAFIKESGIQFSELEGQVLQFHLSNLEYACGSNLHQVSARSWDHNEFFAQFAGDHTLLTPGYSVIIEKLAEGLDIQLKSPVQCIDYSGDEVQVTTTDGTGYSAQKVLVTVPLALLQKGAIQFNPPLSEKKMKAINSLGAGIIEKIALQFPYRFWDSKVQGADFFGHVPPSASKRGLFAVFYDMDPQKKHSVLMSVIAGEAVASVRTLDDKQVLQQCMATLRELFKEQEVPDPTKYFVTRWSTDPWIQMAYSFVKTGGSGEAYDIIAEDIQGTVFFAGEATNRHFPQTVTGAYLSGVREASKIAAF
Description: Immunofluorescence of histone methylation in cells coexpressing LSD2 and NPAC. The class given is cell-based. Set-up: expressed in transfected cells; host or cells: U2OS. The protocol:
FIG. 1A depicts a schematic of NPAC domain structure. AT, AT-hook motif. PWWP, Pro-Trp-Trp-Pro domain (SEQ ID NO: 63). […] Tandem affinity purified NPAC and LSD2 complexes were incubated with nucleosomes purified from HeLa, and analyzed by immunoblot using indicated antibodies. […] The amount of LSD2 enzyme and NPAC cofactor proteins used in each reaction is indicated. Demethylation was assessed by Immunoblot using indicated antibodies. […] Representatives with similar levels of GFP-LSD2 are shown. See also FIGS. 7A-7D.
as §1

B1: NPAC: full-length human NPAC/GLYR1 (protein ID: Q49A26), recombinant, LSD2 cofactor (protein)
chain: MAAVSLRLGDLVWGKLGRYPPWPGKIVNPPKDLKKPRGKKCFFVKFFGTEDHAWIKVEQLKPYHAHKEEMIKINKGKRFQQAVDAVEEFLRRAKGKDQTSSHNSSDDKNRRNSSEERSRPNSGDEKRKLSLSEGKVKKNMGEGKKRVSSGSSERGSKSPLKRAQEQSPRKRGRPPKDEKDLTIPESSTVKGMMAGPMAAFKWQPTASEPVKDADPHFHHFLLSQTEKPAVCYQAITKKLKICEEETGSTSIQAADSTAVNGSITPTDKKIGFLGLGLMGSGIVSNLLKMGHTVTVWNRTAEKCDLFIQEGARLGRTPAEVVSTCDITFACVSDPKAAKDLVLGPSGVLQGIRPGKCYVDMSTVDADTVTELAQVIVSRGGRFLEAPVSGNQQLSNDGMLVILAAGDRGLYEDCSSCFQAMGKTSFFLGEVGNAAKMMLIVNMVQGSFMATIAEGLTLAHVTGQSQQTLLDILNQGQLASIFLDQKCQNILQGNFKPDFYLKYIQKDLRLAIALGDAVNHPTPMAAAANEVYKRAKALDQSDNDMSAVYRAYIH
For the molecule B1, the “Demethylase activity of NPAC itself” value in the series with His-LSD2 (NPAC alone, without LSD2) is listed as “no demethylase activity”. Also, the figures for the “Cofactor activity: stimulation of LSD2 demethylation of nucleosomal H3K4me2” value with His-LSD2 (listed as His-NPAC) and with His-LSD2 (listed as wild-type NPAC) were “stimulated LSD2 activity in a dose-dependent manner” and “robust activity”, respectively. The “Stimulation of LSD1 nucleosome demethylation” value with LSD1 was “no stimulatory effect on nucleosome demethylation by LSD1”. The “Nucleosome binding (GST-pulldown)” value in series [1] was “binds strongly with purified nucleosomes”. Moreover, the “Change of H3K9me2 and other histone marks in cells” value in the series with LSD2 (coexpression of NPAC and LSD2) is listed as “no detectable changes”. The “Depletion of di- and mono-methylated H3K4 in cells” value with LSD2 (coexpression of NPAC and LSD2 vs LSD2 alone, U2OS) was “much more pronounced depletion of di- and mono-methylated H3K4 in cells than expressing LSD2 alone”.
